In publication PMC3499988 (Biochemistry, 2011):
Changes are numbered by the printed parent chain. Names may count otherwise. Where two headings read alike, the source gives them in different places.

What was measured:
Assay in all cases: SPR
HIV-1 HXBc2 gp120 [1] = target: T1, HIV-1 HXBc2 gp120 (HIV-1 (HXBc2), UniProt P04578)
HIV-1 YU-2 gp120 [2] = target: T2, HIV-1 YU-2 gp120 (HIV-1 (YU-2), UniProt P35961)
HIV-1 HXBc2 gp120 [3] = target: T1, HIV-1 HXBc2 gp120; remark: listed apart in the source
HIV-1 YU-2 gp120 [4] = target: T2, HIV-1 YU-2 gp120; remark: listed apart in the source
HIV-1 HXBc2 gp120 [5] = target: T1, HIV-1 HXBc2 gp120; remark: listed apart in the source
HIV-1 YU-2 gp120 [6] = target: T2, HIV-1 YU-2 gp120; remark: listed apart in the source
HIV-1 YU-2 gp120 [7] = target: T2, HIV-1 YU-2 gp120; remark: listed apart in the source

B1: Fab m18 (wild type) (Fab, V domains shown)
VH: VQLLESGPGVVKPSETLSLTCTVSGASVNNYYWTWVRQPPGKGLEWIGNVYDSGDTNYNPSLSSRLSLSMDTSKNQFSLRLSSVTAADTATYYCARYHRHFIRGPLSFDYWGRGTLVTVSS
VL: LQMTQSPSFLSASVGDRVSITCRASQDIQKFLAWYQLTPGDAPKLLMYSASTLQSGVPSRFSGSGSGTEFTLTISGLQPEDFATYYCQHLKRYPYTFGQGTKLEIS
For B1, the Kd (HIV-1 HXBc2 gp120 [1]) was 4.3 nM, the koff (HIV-1 HXBc2 gp120 [1]) was 0.00022 ± 0.9 s⁻¹ and the kon (HIV-1 HXBc2 gp120 [1]) was 52000 ± 2.2 M⁻¹ s⁻¹. It also gave a Kd (HIV-1 YU-2 gp120 [2]) of 1.4 nM, a koff (HIV-1 YU-2 gp120 [2]) of 9.8e-05 s⁻¹ and a kon (HIV-1 YU-2 gp120 [2]) of 69000 ± 0.3 M⁻¹ s⁻¹. For the same binder, the IC50 (HIV-1 HXBc2 gp120 [3]) was 56.9 ± 13 nM, the IC50 (HIV-1 YU-2 gp120 [4]) was 33 ± 3.6 nM and the IC50 (HIV-1 HXBc2 gp120 [5]) was 36.1 ± 12.9 nM. The IC50 (HIV-1 YU-2 gp120 [6]) was 36 ± 1.2 nM.

B2: Fab m18 S62A (HCDR2) (Fab, V domains shown)
VH: B1 VH with S61A
VL: B1 VL
With B2 the Kd (HIV-1 YU-2 gp120 [2]) was 44.2 nM, the koff (HIV-1 YU-2 gp120 [2]) was 0.0016 ± 0.4 s⁻¹ and the kon (HIV-1 YU-2 gp120 [2]) was 35000 ± 0.9 M⁻¹ s⁻¹. The IC50 (HIV-1 YU-2 gp120 [4]) was greater than 1000 nM and the IC50 (HIV-1 YU-2 gp120 [6]) was greater than 1000 nM.

B3: Fab m18 I100A (HCDR3) (Fab, V domains shown)
VH: B1 VH with I102A
VL: B1 VL
Binder B3 has a Kd (HIV-1 HXBc2 gp120 [1]) of 2.8 nM, a koff (HIV-1 HXBc2 gp120 [1]) of 4.6e-05 s⁻¹ and a kon (HIV-1 HXBc2 gp120 [1]) of 17000 ± 0.07 M⁻¹ s⁻¹. The Kd (HIV-1 YU-2 gp120 [2]) was 13.1 nM, the koff (HIV-1 YU-2 gp120 [2]) was 0.00036 ± 1.4 s⁻¹ and the kon (HIV-1 YU-2 gp120 [2]) was 27000 ± 1.3 M⁻¹ s⁻¹. It also gave an IC50 (HIV-1 HXBc2 gp120 [3]) greater than 500 nM, an IC50 (HIV-1 YU-2 gp120 [4]) greater than 500 nM and an IC50 (HIV-1 HXBc2 gp120 [5]) greater than 500 nM. It also gave an IC50 (HIV-1 YU-2 gp120 [6]) greater than 500 nM.

B4: Fab m18 S64A (HCDR2) (Fab, V domains shown)
VH: B1 VH with S63A
VL: B1 VL
B4 was tested, and the Kd (HIV-1 YU-2 gp120 [2]) was 40 nM, the koff (HIV-1 YU-2 gp120 [2]) was 0.00086 ± 5.9 s⁻¹ and the kon (HIV-1 YU-2 gp120 [2]) was 21000 ± 0.7 M⁻¹ s⁻¹. It also gave an IC50 (HIV-1 YU-2 gp120 [4]) greater than 1000 nM and an IC50 (HIV-1 YU-2 gp120 [6]) greater than 1000 nM.

B5: Fab m18 T57A (HCDR2) (Fab, V domains shown)
VH: B1 VH with T56A
VL: B1 VL
B5 was tested, and the Kd (HIV-1 YU-2 gp120 [2]) was 2.5 nM, the koff (HIV-1 YU-2 gp120 [2]) was 0.00021 ± 0.4 s⁻¹ and the kon (HIV-1 YU-2 gp120 [2]) was 84000 ± 2 M⁻¹ s⁻¹. For the same binder, the IC50 (HIV-1 YU-2 gp120 [4]) was 16.8 ± 3.8 nM and the IC50 (HIV-1 YU-2 gp120 [6]) was 33.1 ± 8 nM.

B6: Fab m18 P61A (HCDR2) (Fab, V domains shown)
VH: B1 VH with P60A
VL: B1 VL
B6 gave a Kd (HIV-1 YU-2 gp120 [2]) of 19.3 nM, a koff (HIV-1 YU-2 gp120 [2]) of 0.00063 ± 1 s⁻¹ and a kon (HIV-1 YU-2 gp120 [2]) of 33000 ± 1 M⁻¹ s⁻¹. It also gave an IC50 (HIV-1 YU-2 gp120 [4]) greater than 1000 nM and an IC50 (HIV-1 YU-2 gp120 [6]) greater than 1000 nM.

B7: Fab m18 F99A (HCDR3) (Fab, V domains shown)
VH: B1 VH with F101A
VL: B1 VL
B7 showed a Kd (HIV-1 HXBc2 gp120 [1]) of 1.3 nM, a koff (HIV-1 HXBc2 gp120 [1]) of 0.00013 ± 0.1 s⁻¹ and a kon (HIV-1 HXBc2 gp120 [1]) of 100000 ± 0.02 M⁻¹ s⁻¹. For the same binder, the Kd (HIV-1 YU-2 gp120 [2]) was 5.9 nM, the koff (HIV-1 YU-2 gp120 [2]) was 0.00026 ± 1.5 s⁻¹ and the kon (HIV-1 YU-2 gp120 [2]) was 45000 ± 2.5 M⁻¹ s⁻¹. For the same binder, the IC50 (HIV-1 HXBc2 gp120 [3]) was 69.5 ± 3.7 nM, the IC50 (HIV-1 YU-2 gp120 [4]) was greater than 500 nM and the binding result (HIV-1 YU-2 gp120 [7]) was “binds”. The IC50 (HIV-1 HXBc2 gp120 [5]) was 58.2 ± 4.3 nM and the IC50 (HIV-1 YU-2 gp120 [6]) was greater than 500 nM.

B8: Fab m18 D56A (HCDR2) (Fab, V domains shown)
VH: B1 VH with D55A
VL: B1 VL
B8 showed a Kd (HIV-1 YU-2 gp120 [2]) of 26.2 nM, a koff (HIV-1 YU-2 gp120 [2]) of 0.00061 ± 4.5 s⁻¹ and a kon (HIV-1 YU-2 gp120 [2]) of 25000 ± 0.6 M⁻¹ s⁻¹. The IC50 (HIV-1 YU-2 gp120 [4]) was greater than 1000 nM and the IC50 (HIV-1 YU-2 gp120 [6]) was greater than 1000 nM.

B9: Fab m18 K31A (LCDR1) (Fab, V domains shown)
VH: B1 VH
VL: B1 VL with K30A
In the case of B9, the Kd (HIV-1 HXBc2 gp120 [1]) is reported as 18.7 nM, the koff (HIV-1 HXBc2 gp120 [1]) is reported as 0.00031 ± 1.1 s⁻¹ and the kon (HIV-1 HXBc2 gp120 [1]) is reported as 17000 ± 0.5 M⁻¹ s⁻¹. The Kd (HIV-1 YU-2 gp120 [2]) was 3.1 nM, the koff (HIV-1 YU-2 gp120 [2]) was 8.9e-05 s⁻¹ and the kon (HIV-1 YU-2 gp120 [2]) was 29000 ± 0.4 M⁻¹ s⁻¹. For the same binder, the IC50 (HIV-1 HXBc2 gp120 [3]) was greater than 500 nM, the IC50 (HIV-1 YU-2 gp120 [4]) was greater than 500 nM and the IC50 (HIV-1 HXBc2 gp120 [5]) was greater than 500 nM. It also gave an IC50 (HIV-1 YU-2 gp120 [6]) greater than 500 nM.

B10: Fab m18 R100aA (HCDR3) (Fab, V domains shown)
VH: B1 VH with R103A
VL: B1 VL
B10 was tested, and the Kd (HIV-1 YU-2 gp120 [2]) was 2.3 nM, the koff (HIV-1 YU-2 gp120 [2]) was 7.6e-05 s⁻¹ and the kon (HIV-1 YU-2 gp120 [2]) was 34000 ± 0.9 M⁻¹ s⁻¹. The IC50 (HIV-1 YU-2 gp120 [4]) was greater than 500 nM and the IC50 (HIV-1 YU-2 gp120 [6]) was greater than 500 nM.

B11: Fab m18 S54A (HCDR2) (Fab, V domains shown)
VH: B1 VH with S53A
VL: B1 VL
B11 showed a Kd (HIV-1 YU-2 gp120 [2]) of 56.4 nM, a koff (HIV-1 YU-2 gp120 [2]) of 0.0022 ± 0.7 s⁻¹ and a kon (HIV-1 YU-2 gp120 [2]) of 39000 ± 0.5 M⁻¹ s⁻¹. The IC50 (HIV-1 YU-2 gp120 [4]) was greater than 1000 nM and the IC50 (HIV-1 YU-2 gp120 [6]) was greater than 1000 nM.

B12: Fab m18 H96A (HCDR3) (Fab, V domains shown)
VH: B1 VH with H98A
VL: B1 VL
For B12, the Kd (HIV-1 YU-2 gp120 [2]) was 11.7 nM, the koff (HIV-1 YU-2 gp120 [2]) was 0.0011 ± 0.6 s⁻¹ and the kon (HIV-1 YU-2 gp120 [2]) was 93000 ± 2.9 M⁻¹ s⁻¹. It also gave an IC50 (HIV-1 YU-2 gp120 [4]) greater than 500 nM and an IC50 (HIV-1 YU-2 gp120 [6]) greater than 500 nM.

B13: Fab m18 S65A (HCDR2) (Fab, V domains shown)
VH: B1 VH with S64A
VL: B1 VL
For B13, the Kd (HIV-1 YU-2 gp120 [2]) was 39.1 nM, the koff (HIV-1 YU-2 gp120 [2]) was 0.0014 ± 0.2 s⁻¹ and the kon (HIV-1 YU-2 gp120 [2]) was 36000 ± 1.2 M⁻¹ s⁻¹. For the same binder, the IC50 (HIV-1 YU-2 gp120 [4]) was greater than 1000 nM and the IC50 (HIV-1 YU-2 gp120 [6]) was greater than 1000 nM.

B14: Fab m18 S52A (LCDR2) (Fab, V domains shown)
VH: B1 VH
VL: B1 VL with S51A
Binder B14 has a Kd (HIV-1 HXBc2 gp120 [1]) of 0.6 nM, a koff (HIV-1 HXBc2 gp120 [1]) of 2e-05 s⁻¹ and a kon (HIV-1 HXBc2 gp120 [1]) of 35000 ± 2.1 M⁻¹ s⁻¹. It also gave a Kd (HIV-1 YU-2 gp120 [2]) of 4.7 nM, a koff (HIV-1 YU-2 gp120 [2]) of 8.1e-05 s⁻¹ and a kon (HIV-1 YU-2 gp120 [2]) of 17000 ± 0.9 M⁻¹ s⁻¹. For the same binder, the IC50 (HIV-1 HXBc2 gp120 [3]) was greater than 360 nM, the IC50 (HIV-1 YU-2 gp120 [4]) was no less than 500 nM and the IC50 (HIV-1 HXBc2 gp120 [5]) was greater than 360 nM. It also gave an IC50 (HIV-1 YU-2 gp120 [6]) greater than 500 nM.

B15: Fab m18 F99Y (HCDR3) (Fab, V domains shown)
VH: B1 VH with F101Y
VL: B1 VL
Work on B15 yielded a Kd (HIV-1 HXBc2 gp120 [1]) of 0.9 nM, a koff (HIV-1 HXBc2 gp120 [1]) of 9.2e-05 s⁻¹ and a kon (HIV-1 HXBc2 gp120 [1]) of 100000 ± 0.03 M⁻¹ s⁻¹. It also gave a Kd (HIV-1 YU-2 gp120 [2]) of 1.1 nM, a koff (HIV-1 YU-2 gp120 [2]) of 0.00011 ± 0.9 s⁻¹ and a kon (HIV-1 YU-2 gp120 [2]) of 94000 ± 2.5 M⁻¹ s⁻¹. The IC50 (HIV-1 HXBc2 gp120 [3]) was 66.7 ± 6.1 nM, the IC50 (HIV-1 YU-2 gp120 [4]) was 53.7 ± 1.5 nM and the IC50 (HIV-1 HXBc2 gp120 [5]) was 62.8 ± 12.3 nM. For the same binder, the IC50 (HIV-1 YU-2 gp120 [6]) was 75.3 ± 20.6 nM.
